From US20200234789A1, “DESIGNED PROTEINS FOR LIGAND BINDING” (THE REGENTS OF THE UNIVERSITY OF CALIFORNIA, priority 2017, published 2020) come the findings set out here.

The data set can be described thus: Analytical ultracentrifugation (equilibrium sedimentation), oligomeric state. It counts as physicochemical. The following applies: analytical ultracentrifugation and gel filtration. An excerpt:
FIG. 7A-7B. […] FIG. 7A: Analytical ultracentrifugation. Solutions of apo- and holo-PS1 were centrifuged at speeds ranging from 25,000 r.p.m. to 45,000 r.p.m. and monitored by absorbance at 280 nm. Parameters were globally fit to the data. Single-species fitting agrees well with the data over the entire range and yields the molecular weight of apo-PS1 […] and holo-PS1 12.24±0.91 kD, which agrees well with the 12.86 kD weight of PS1. […] Partial specific volumes were estimated from SEDNTERP^15 for amino acid side chains. FIG. 7B: Analytical gel filtration analysis of apo- and holo-PS1. Detection wavelengths are labeled as the same color as their respective curves. […] The small peak near 1.05 ml elution volume in holo-PS1 is unbound (excess), aggregated porphyrin eluting in the void volume of the superdex 75 5/150 column. Samples were run at concentrations of 100 μM and 37 μM for apo and holo, respectively, in 50 mM NaPi, 150 mM NaCl, pH 7.0 buffer.
The oligomeric state of apo- and holo-PS1 were determined by analytical equilibrium sedimentation performed at 25° C. using a Beckman XL-I analytical ultracentrifuge. Ultracentrifugation was conducted at speeds of 25K, 30K, 35K, 40K and 45K r.p.m., and the radial gradient profiles were obtained by absorbance at 280 nm. […]

B1: PS1: de novo designed porphyrin-binding four-helix bundle protein; designed sequence SEQ ID NO:1, expressed His-tag-cleaved sequence SEQ ID NO:2 (protein)
chain: SEFEKLRQTGDELVQAFQRLREIFDKGDDDSLEQVLEEIEELIQKHRQLFDNRQEAADTEAAKQGDQWVQLFQRFREAIDKGDKDSLEQLLEELEQALQKIRELAEKKN
Consider B1, for which the “oligomeric state in solution” value was “monomeric”.
